The series has as its target T1, Bxb1 integrase (Mycobacterium phage Bxb1?) (UniProt Q9B086).
T1 sequence: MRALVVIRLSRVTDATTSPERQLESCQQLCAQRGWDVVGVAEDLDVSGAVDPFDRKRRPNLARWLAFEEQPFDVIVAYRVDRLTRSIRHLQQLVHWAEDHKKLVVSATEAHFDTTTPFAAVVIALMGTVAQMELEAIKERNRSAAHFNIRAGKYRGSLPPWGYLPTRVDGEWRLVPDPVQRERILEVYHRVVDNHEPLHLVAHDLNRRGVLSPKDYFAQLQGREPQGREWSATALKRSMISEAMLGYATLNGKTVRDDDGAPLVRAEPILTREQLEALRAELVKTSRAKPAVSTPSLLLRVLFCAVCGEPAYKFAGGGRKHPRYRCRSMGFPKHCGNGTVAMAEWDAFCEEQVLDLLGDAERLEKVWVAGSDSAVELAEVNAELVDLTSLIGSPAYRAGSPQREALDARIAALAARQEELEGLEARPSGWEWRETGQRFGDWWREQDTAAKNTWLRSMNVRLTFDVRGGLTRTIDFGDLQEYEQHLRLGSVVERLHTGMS
The series can be described thus: cell_activity. To be noted: in vivo mouse liver, 1E11 vg Bxb1 AdV, 1E12 vg AAV; about 7% at 3E10 vg.

In patent US20250057980 one finds activity (% integration) data, which are given here for 1 substance.

In turn, “AttP GT/GA dual site in Rosa26 of AttP mice with 38 bp GT AttB AAV donor” came in with an activity (% integration) of 11.
